Measurements: patent publication US20260069689A1 (Regeneron, published 2026)
Like-named read-outs stand apart in the source and are kept apart here.

Key:
[1] = biological target: T1, human FcγR3a 176Val allotype receptor (human, UniProt P08637 17-254); assay: cell-based or functional assay
[2] = biological target: SARS-COV-2 RBD-MMH (SARS-CoV-2); assay: SPR 37C
[3] = biological target: SARS-COV-2 RBD-MMH (SARS-CoV-2); assay: SPR 37C, run with dissociation at pH 7.4
[4] = biological target: SARS-COV-2 RBD-MMH (SARS-CoV-2); assay: SPR 37C, run with dissociation at pH 5.0
[5] = biological target: T1, human FcγR3a 176Val allotype receptor; assay: cell-based or functional assay; remark: listed apart in the source

| Binder | EC50 (M), Jurkat/CD20/spike [1] [M] | Fold induction, Jurkat CD20 [1] [fold] | Fold induction, Jurkat/CD20/spike [1] [fold] | t½ Ratio of pH 7.4 to pH 5.0 [2] | RBD.mmh Bound at pH 7.4 (RU) [3] [RU] | koff [3] [s⁻¹] | RBD.mmh Bound at pH 7.4 (RU) [4] [RU] | koff [4] [s⁻¹] | t½ [4] [min] | EC50 (M), Jurkat/CD20/spike [5] [M] | Fold induction, Jurkat CD20 [5] [fold] | Fold induction, Jurkat/CD20/spike [5] [fold] | EC50 (M), Jurkat CD20 [1] [M] |
| --- | --- | --- | --- | --- | --- | --- | --- | --- | --- | --- | --- | --- | --- |
| mAb14315 (antibody) heavy: not shown light: EIVLTQSPGTLSLSPGERATLSCRASQSVSSNYLAWYQQKPGQAPRLLIYGASSRATGIPERFSGSGSGTDFTLTISRLEPEDFAVYYCQQYGSSLYTFGQGTKLEIKRTVAAPSVFIFPPSDEQLKSGTASVVCLLNNFYPREAKVQWKVDNALQSGNSQESVTEQDSKDSTYSLSSTLTLSKADYEKHKVYACEVTHQGLSSPVTKSFNRGEC | 6.24e-11 | 1.1 | 9.3 | 0.7 | 83.3 | 0.00098 | 101 | 0.0007 | 16.5 |  |  |  |  |
| mAb14283 (antibody) heavy: not shown light: QSALTQPASVSGSPGQSTTISCTGTSSDVGGYNYVSWYQQYPGKAPKLMIYDVTNRPSGVSHRFSGSKSGNTASLTISGLQAEDEADYYCSSYTSSSTVIFGGGTKLTVLGQPKAAPSVTLFPPSSEELQANKATLVCLISDFYPGAVTVAWKADSSPVKAGVETTTPSKQSNNKYAASSYLSLTPEQWKSHRSYSCQVTHEGSTVEKTVAPTECS | 1.39e-10 | 1.1 | 9.1 | 3 | 87.7 | 0.00169 | 91.7 | 0.00512 | 2.3 |  |  |  |  |
| mAb14286 (antibody) heavy: not shown light: QSALTQPASVSGYPGQSITISCTGTSSDVGGYNYVSWYQQHPGKAPKLMIFDVSNRPSGVSNRFSGSKSGNTASLTFSGLQAEDEADYYCSSYTSSSTLVFGGGTKLTVLGQPKAAPSVTLFPPSSEELQANKATLVCLISDFYPGAVTVAWKADSSPVKAGVETTTPSKQSNNKYAASSYLSLTPEQWKSHRSYSCQVTHEGSTVEKTVAPTECS | 2.04e-10 | 1 | 11 | 0.7 | 84.3 | 0.00968 | 82.4 | 0.00664 | 1.7 |  |  |  |  |
| mAb14282 (antibody) heavy: not shown light: QSALTQPASVSGSPGQSITISCTGTSSDVGSYNLVSWYQQHPGKAPKLMIYELTKRPSGVSNRFSGSKSGNTASLTISGLQAEDEADYYCSSYRGSVTDVVFGGGTKLTVLGQPKAAPSVTLFPPSSEELQANKATLVCLISDFYPGAVTVAWKADSSPVKAGVETTTPSKQSNNKYAASSYLSLTPEQWKSHRSYSCQVTHEGSTVEKTVAPTECS | 2.57e-10 | 1.1 | 10.7 | 0.5 | 73.5 | 0.0126 | 62.4 | 0.00671 | 1.7 |  |  |  |  |
| mAb14255 (antibody) heavy: not shown light: QSALTQPASVSGSPGQSITISCTGTSSDVGSYNLVSWYQQHPGKAPKLMIYEDSKRPSGVANPFSGSKSGNTASLTISGLQAEDEADYYCSSYAGSSTWVFGGGTKLTVLGQPKAAPSVTLFPPSSEELQANKATLVCLISDFYPGAVTVAWKADSSPVKAGVETTTPSKQSNNKYAASSYLSLTPEQWKSHRSYSCQVTHEGSTVEKTVAPTECS | 1.67e-10 | 1 | 9.5 | 1.3 | 97.5 | 0.00493 | 94.1 | 0.00635 | 1.8 | 1.88e-10 | 1.1 | 3.2 |  |
| mAb14256 (antibody) heavy: not shown light: QSVLTQPPSVSGAPGQRVTISCTGSSSNIGTHYDVHWYQQLPGTAPKLLIYGNSNRPSGVPDRFSGSKSGTSASLAITGLQAEDEADYYCQSFDNSLTAPYVFGTGTKVTVLGQPKAAPSVTLFPPSSEELQANKATLVCLISDFYPGAVTVAWKADSSPVKAGVETTTPSKQSNNKYAASSYLSLTPEQWKSHRSYSCQVTHEGSTVEKTVAPTECS | 4.48e-10 | 1 | 6.1 | 0.8 | 80.2 | 0.0111 | 54.1 | 0.00927 | 1.2 | 5.75e-10 | 1.1 | 2 |  |
| mAb14312 (antibody) heavy: not shown light: QSVLTQPPSVSGAPGQRVTISCTGSSSNIGAGDDVHWYQQLPGTAPKLLIYGNSNRPSGVPDRFSGSKSGTSASLAITGLQAEDEADYYCQSYDSSLSGSVVFGGGTKLTVLGQPKAAPSVTLFPPSSEELQANKATLVCLISDFYPGAVTVAWKADSSPVKAGVETTTPSKQSNNKYAASSYLSLTPEQWKSHRSYSCQVTHEGSTVEKTVAPTECS | 1.68e-10 | 2 | 7.5 | 6.4 | 95.2 | 0.000859 | 96.7 | 0.00558 | 2.1 |  |  |  | 1.84e-08 |
| mAb14289 (antibody) heavy: not shown light: EIVLTQSPGTLSLSPGERATLSCRASQSVSSYLAWYQQKPGQAPRLLIHGASSRATGIPDRFSGSGSGTDFTLTISRLEPEDFAVYYCQQYGSSFLTFGGGTKVEIKRTVAAPSVFIFPPSDEQLKSGTASVVCLLNNFYPREAKVQWKVDNALQSGNSQESVTEQDSKDSTYSLSSTLTLSKADYEKHKVYACEVTHQGLSSPVTKSFNRGEC | 1.3e-10 | 1 | 6.3 | 2.5 | 86.1 | 0.00185 | 89.3 | 0.0046 | 2.5 |  |  |  |  |
| mAb14284 (antibody, also called REGN14284) heavy: not shown light: QSALTQPASVSGSPGQSITISCTGTSSDLGVFNYVSWYQQHPGKAPKLMIYEVTNRPSGVSNRFSGSKSGNTASLTISGLQAEDEADYYCSSYTTSSTVFGGGTKLTVLGQPKAAPSVTLFPPSSEELQANKATLVCLISDFYPGAVTVAWKADSSPVKAGVETTTPSKQSNNKYAASSYLSLTPEQWKSHRSYSCQVTHEGSTVEKTVAPTECS | 1.56e-10 | 1.1 | 9 | 1.2 | 147 | 0.000624 | 159 | 0.000736 | 15.7 |  |  |  |  |
| mAb14294 (antibody) heavy: not shown light: EIVLTQSPGTLSLSPGERATLSCRASQSVSSSQLAWYQQKPGQAPRLLIYGASSRATGIPDRFSGSGSGTDFTLTISRLEPEDFAVYYCQQYDSFGQGTKLEIKRTVAAPSVFIFPPSDEQLKSGTASVVCLLNNFYPREAKVQWKVDNALQSGNSQESVTEQDSKDSTYSLSSTLTLSKADYEKHKVYACEVTHQGLSSPVTKSFNRGEC | 6.04e-11 | 1 | 10.5 | 0.5 | 83.2 | 0.00092 | 97.6 | 0.000452 | 25.5 |  |  |  |  |
| mAb14281 (antibody) heavy: not shown light: SSELTQDPAVSVALGQTVRITCQGDSLRSYYASWYQQKPGQAPVLVIYDKNNRPSGIPDRFSGSSSGNTASLTITGAQAEDEADYYCNSRDSSRNHLVVFGGGTKLTVLGQPKAAPSVTLFPPSSEELQANKATLVCLISDFYPGAVTVAWKADSSPVKAGVETTTPSKQSNNKYAASSYLSLTPEQWKSHRSYSCQVTHEGSTVEKTVAPTECS | 1.65e-10 | 1.1 | 10.3 | 1.8 | 83.5 | 0.00659 | 51.7 | 0.0117 | 1 |  |  |  |  |
